According to US20150307603A1 (MODIQUEST B V, published 2015):
Non-standard residues stand in square brackets, D forms with d. No end group written: not given here. Cit = NC(=O)NCCC[C@H](N)C(=O)O

Key:
msFibα XG [1] = molecular target: T1, msFibα XG (mouse, X at position 8 = citrulline; biotin-labelled); experiment: ELISA, Ab 10 ug/well
T1 peptide: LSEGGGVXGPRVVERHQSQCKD
Method: (§1) Biotin and citrulline-containing peptides derived from fibrinogen and vimentin were immobilized on NEUTRAVIDIN®-coated 96-well ELISA plates (0.3 μg/well). CFC-1 and CFC-0 were coated at the same concentration and served as positive and negative controls, respectively, for specific anti-citrulline reactivity and as coating controls. Non-coated wells were used to test for aspecific binding of the antibodies. […] Detection of bound anti-citrulline antibodies was performed by incubating the wells with rabbit anti-human HRP (1:2000) for 1 hour at RT followed by incubation with TMB substrate. The resulting OD (y-axis) is a measure for antibody binding.
(§2) Biotin-labeled and citrulline-containing fibrinogen and vimentin peptides (Table 5) were also tested for reactivity with the therapeutic antibodies. Peptides were coated on 96-well NEUTRAVIDIN®-ELISA plates.

huFibα XG [2] = molecular target: T2, huFibα XG (human, X at position 8 = citrulline; biotin-labelled); experiment: ELISA, Ab 10 ug/well
T2 peptide: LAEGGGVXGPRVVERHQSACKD
Method: as §1, §2

CFC-1 [3] = molecular target: T3, CFC-1; experiment: ELISA, Ab 10 ug/well
T3 construct: Positive control for anti-citrulline reactivity; also called cfc1 XG; Cfc1-peptide
Method: as §1, §2

msFibα XH [4] = molecular target: T4, msFibα XH (mouse, X at position 15 = citrulline; biotin-labelled); experiment: ELISA, Ab 10 ug/well
T4 peptide: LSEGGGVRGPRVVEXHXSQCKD
Method: as §1, §2

msVim XS/XL [5] = molecular target: T5, msVim XS/XL (mouse, also: biotin-labelled); experiment: ELISA, Ab 10 ug/well
T5 construct: also called mouse vimentin peptide
T5 peptide: YVT[Cit]SSAV[Cit]L[Cit]SSVP
Method: as §1, §2

huFibα XH [6] = molecular target: T6, huFibα XH (human, X at position 15 = citrulline; biotin-labelled); experiment: ELISA, Ab 10 ug/well
T6 peptide: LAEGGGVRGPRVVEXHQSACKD
Method: as §1, §2

msFibβ XG [7] = molecular target: T7, msFibβ XG (mouse, also: biotin-labelled); experiment: ELISA, Ab 10 ug/well
T7 construct: also called mouse fibrinogen β peptide
T7 peptide: EPTDSLDA[Cit]GHRPVDRR
Method: as §1, §2

CFC-1 [8] = molecular target: T3, CFC-1; experiment: ELISA, Ab 0.08 ug/well
Method: as §1, with “histone 2A” for “fibrinogen and vimentin”

[9] = molecular target: T8, peptide no. 3 (human histone 2A) (human, also: biotin-labelled); experiment: ELISA, Ab 0.08 ug/well
T8 construct: also called peptide 3
T8 peptide: KSRSS[Cit]AGLQFP
Method: as §1, with “histone 2A” for “fibrinogen and vimentin”

[10] = molecular target: T9, peptide no. 2 (human histone 2A) (human, also: biotin-labelled); experiment: ELISA, Ab 0.08 ug/well
T9 construct: also called peptide 2
T9 peptide: AKAKS[Cit]SSRAGL
Method: as §1, with “histone 2A” for “fibrinogen and vimentin”

[11] = molecular target: T10, peptide no. 1 (human histone 2A) (human, also: biotin-labelled); experiment: ELISA, Ab 0.08 ug/well
T10 construct: also called peptide 1; AAASGXGKQGGK
T10 peptide: AAASG[Cit]GKQGGK
Method: as §1, with “histone 2A” for “fibrinogen and vimentin”

msFibα XG [12] = molecular target: T1, msFibα XG; experiment: ELISA, Ab 0.00064 ug/well
Method: as §1, §2

huFibα XG [13] = molecular target: T2, huFibα XG; experiment: ELISA, Ab 0.00064 ug/well
Method: as §1, §2

CFC-1 [14] = molecular target: T3, CFC-1; experiment: ELISA, Ab 0.00064 ug/well
Method: as §1, §2

msFibα XH [15] = molecular target: T4, msFibα XH; experiment: ELISA, Ab 0.00064 ug/well
Method: as §1, §2

msVim XS/XL [16] = molecular target: T5, msVim XS/XL; experiment: ELISA, Ab 0.00064 ug/well
Method: as §1, §2

huFibα XH [17] = molecular target: T6, huFibα XH; experiment: ELISA, Ab 0.00064 ug/well
Method: as §1, §2

msFibβ XG [18] = molecular target: T7, msFibβ XG; experiment: ELISA, Ab 0.00064 ug/well
Method: as §1, §2

msFibα XG [19] = molecular target: T1, msFibα XG; experiment: ELISA, Ab 0.0032 ug/well
Method: as §1, §2

huFibα XG [20] = molecular target: T2, huFibα XG; experiment: ELISA, Ab 0.0032 ug/well
Method: as §1, §2

CFC-1 [21] = molecular target: T3, CFC-1; experiment: ELISA, Ab 0.0032 ug/well
Method: as §1, §2

msFibα XH [22] = molecular target: T4, msFibα XH; experiment: ELISA, Ab 0.0032 ug/well
Method: as §1, §2

msVim XS/XL [23] = molecular target: T5, msVim XS/XL; experiment: ELISA, Ab 0.0032 ug/well
Method: as §1, §2

huFibα XH [24] = molecular target: T6, huFibα XH; experiment: ELISA, Ab 0.0032 ug/well
Method: as §1, §2

msFibβ XG [25] = molecular target: T7, msFibβ XG; experiment: ELISA, Ab 0.0032 ug/well
Method: as §1, §2

[26] = molecular target: T11, peptide no. 11 (human histone 2A) (human, also: biotin-labelled); experiment: ELISA, Ab 2 ug/well
T11 construct: also called peptide 11
T11 peptide: LQLAI[Cit]NDEELN
Method: as §1, with “histone 2A” for “fibrinogen and vimentin”

[27] = molecular target: T8, peptide no. 3 (human histone 2A); experiment: ELISA, Ab 2 ug/well
Method: as §1, with “histone 2A” for “fibrinogen and vimentin”

[28] = molecular target: T9, peptide no. 2 (human histone 2A); experiment: ELISA, Ab 2 ug/well
Method: as §1, with “histone 2A” for “fibrinogen and vimentin”

[29] = molecular target: T12, peptide no. 10 (human histone 2A) (human, also: biotin-labelled); experiment: ELISA, Ab 2 ug/well
T12 construct: also called peptide 10
T12 peptide: TRIIP[Cit]HLQLAI
Method: as §1, with “histone 2A” for “fibrinogen and vimentin”

B1: RhmAb2.102 (antibody, human IgG1, lambda)
heavy: not shown
light: QSVLTQPPSMSAAPGQKVTISCSGSSSNIGNNYVSWYQQVPGTAPKLLIYDDNKRPSGIPGRFSGSKSATSATLGITGLQAGDEADYYCGSWDDNLSVVLFGGGTKLTVLGQPKAAPSVTLFPPSSEELQANKATLVCLISDFYPGAVTVAWKADSSPVKAGVETTTPSKQSNNKYAASSYLSLTPEQWKSHRSYSCQVTHEGSTVEKTVAPTECS
notes: Human IgG1 lambda; also called Rhm2.102
OD (msFibα XG [1]): 3.03 OD450 | OD (huFibα XG [2]): 2.73 OD450 | OD (CFC-1 [3]): 3.89 OD450 | OD (msFibα XH [4]): 0.154 OD450 | OD (msVim XS/XL [5]): 3.69 OD450 | OD (huFibα XH [6]): 0.179 OD450 | OD (msFibβ XG [7]): 3.8 OD450 | OD (CFC-1 [8]): 2.66 OD450 | OD [9]: 0.091 OD450 | OD [10]: 0.086 OD450 | OD [11]: 2.04 OD450 | OD (msFibα XG [12]): 0.116 OD450 | OD (huFibα XG [13]): 0.125 OD450 | OD (CFC-1 [14]): 0.345 OD450 | OD (msFibα XH [15]): 0.088 OD450 | OD (msVim XS/XL [16]): 0.154 OD450 | OD (huFibα XH [17]): 0.124 OD450 | OD (msFibβ XG [18]): 0.133 OD450 | OD (msFibα XG [19]): 0.125 OD450 | OD (huFibα XG [20]): 0.125 OD450 | OD (CFC-1 [21]): 0.506 OD450 | OD (msFibα XH [22]): 0.085 OD450 | OD (msVim XS/XL [23]): 0.142 OD450 | OD (huFibα XH [24]): 0.123 OD450 | OD (msFibβ XG [25]): 0.12 OD450 | OD [26]: 0.067 OD450 | OD [27]: 0.286 OD450 | OD [28]: 0.27 OD450 | OD [29]: 0.07 OD450
